Reference: article PMC3755756

Target: ubiquitin (15N-Ub) (UniProt P0CG48)
Experiment: NMR titration

V domain of S. castelli Bro1 (domain or fragment)
Kd relative to the V domains of Alix and HD-PTP (~50 μM): 5 fold
